Experiments:
recombinant human C5 [1] = molecular target: T1, recombinant human C5 (human, UniProt P01031 20-1676); test: SPR (BIACORE T200), antibody captured by ProA/G, recombinant human C5 injected, 37 degrees C, pH5.8; pH 5.8
T1 construct: The same entry is used here for C5 in normal human serum in the functional rows; also called hC5; rhC5

recombinant human C5 [2] = molecular target: T1, recombinant human C5; test: SPR (BIACORE T200), antibody captured by ProA/G, recombinant human C5 injected, 37 degrees C, pH7.4; pH 7.4

Row | koff (recombinant human C5 [1]) [s⁻¹] | kon (recombinant human C5 [1]) [M⁻¹ s⁻¹] | koff (recombinant human C5 [2]) [s⁻¹] | kon (recombinant human C5 [2]) [M⁻¹ s⁻¹] | Binder
1 | 7.39e-05 | 1.24e+06 | 9.77e-05 | 628000 | CFA0341 (antibody, V domains shown) VH: QSVEESGGRLVTPGTPLTLTCTVSGIDLSSYTMGWVRQAPGKGLECIGYIHSFGSTYYASWAKGRFTISKTSTTVDLEITSPTTEDTATYFCARDVGGSSGWDLWGQGTLVTVSS VL: DVVMTQTPSSVSAAVGGTVTIKCQASENIYSNLAWYQQKPGQPPKRLIYDASDLASGVPSRFSGSGYGTQFTLTISGVQCEDAATYYCQANYDSTSSSFGNVFGGGTEVVVK
2 | 0.000224 | 1.22e+06 | 0.000202 | 1.66e+06 | CFA0330 (antibody, V domains shown) VH: QSLEESGGDLVEPGASLTLTCTASGFSWNSGYDMCWVRQAPGKGLEWIACIYTGSSANTAYANWAKGRFTISKTSSTTVTLQMTGLTAADTATYFCARHDDYFFDLWGPGTLVTVSS VL: DVVMTQTPASVSESVGGTVTINCQASQSIGNNLAWYQQKPGQPPKLLIYDASNLASGVPSRFKGSRSGTEPTLTNTLTISGVQCADVATYYCQSGWYGNSYVAAFGGGTEVVVKR
